# Assay results taken from PMC7834972.
# Molecular target: SARS-CoV-2 S-I53-50A.1NT1 fusion protein (SARS-CoV-2)
# Test: SEC; Superose 6 increase 10/300 GL in TBS with 5% glycerol; fractions between 12-14 mL pooled; blue native gel of the pooled fractions
substance,measurement,value
SARS-CoV-2 S-I53-50A.1NT1 fusion protein,stoichiometry N,3
